Legend:
[1] = biological target: T1, recombinant human TIM3 extracellular domain, 6-His C-ter-tagged (ACROBiosystems) (Homo sapiens, UniProt Q8TDQ0); assay: AlphaScreen or HTRF; dose-response of antibodies (human IgG1 in concentrated, dosed HEK293 supernatant) on recombinant TIM3 or TIGIT at 0.6 ng/µl; 1 h incubation, then donor and acceptor sensors 1 h; EC50 from a fit in GraphPad Prism; settings: one partner purified
T1 construct: TIM3 (HAVCR2), human, recombinant extracellular domain; the methods describe the His-tagged protein; For BLI only 'recombinant TIM3' is said; also called HAVCR-2; HAVCR2; source: bought: ACROBiosystems; not shown: His6, C-terminal, kept

[2] = biological target: T1, recombinant human TIM3 extracellular …; assay: BLI; Octet RED96, antibody loaded from supernatant on anti-human Fc (AHC) biosensors, recombinant TIM3 or TIGIT in solution; PBS, 30°C, 1000 rpm; association 300 sec, dissociation 300 sec; global 1:1 fit; settings: one partner purified
[3] = biological target: T2, TIT-H52H5 Human TIGIT Protein, His Tag, active dimer (ACROBiosystems) (Homo sapiens, UniProt Q495A1); assay: AlphaScreen or HTRF; dose-response of antibodies (human IgG1 in concentrated, dosed HEK293 supernatant) on recombinant TIM3 or TIGIT at 0.6 ng/µl; 1 h incubation, then donor and acceptor sensors 1 h; EC50 from a fit in GraphPad Prism; settings: one partner purified
T2 construct: TIGIT, human, recombinant extracellular domain; the methods describe the His-tagged protein; For BLI only 'recombinant TIGIT' is said; also called VSIG9; T-cell immunoreceptor with Ig and ITIM domains; source: bought: ACROBiosystems
T2 sequence (Q495A1 22-141): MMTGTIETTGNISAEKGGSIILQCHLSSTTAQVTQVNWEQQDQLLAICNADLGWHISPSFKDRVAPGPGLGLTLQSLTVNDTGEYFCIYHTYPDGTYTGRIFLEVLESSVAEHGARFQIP

[4] = biological target: T2, TIT-H52H5 Human TIGIT Protein, His Tag, …; assay: BLI; Octet RED96, antibody loaded from supernatant on anti-human Fc (AHC) biosensors, recombinant TIM3 or TIGIT in solution; PBS, 30°C, 1000 rpm; association 300 sec, dissociation 300 sec; global 1:1 fit; settings: one partner purified
[5] = biological target: T3, SIRPα with C-terminal Flag tag, overexpressed in HEK293 cells (UniProt P78324); assay: flow cytometry on cells; HEK293 transiently transfected with the Flag-tagged target, fixed and permeabilized, incubated with raw antibody supernatants 1 h at room temperature; APC anti-human IgG and PE anti-Flag; % APC+PE+ cells; settings: partners not purified
T3 construct: SIRPα, transmembrane target, synthetic gene; source: HEK293, transiently transfected (pcDNA3.1), cells fixed and permeabilized; not shown: Flag, C-terminal, kept

B1: Tim3.18, human IgG1 format (antibody, V domains shown)
VH: QLQLQESGPGLVKPSETLSLTCTVSGGSISSRSYYWGWIRQPPGKGLEWIGSIYYSGFTYYQPSLKSRVTISVDTSKNQFSLKLSSVTAADTAVYYCATGGPYGDYAHWFEPWGQGTLVTVSS
VL: not shown
notes: VH of Tim3.18; constant domains of unmodified human IgG1 heavy chain, from the plasmid pTrioz-hIgG1 (InvivoGen); VL of Tim3.18; constant domain of the light chain as encoded by pTrioz-hIgG1; IgG1; VH and VL by gene synthesis; also called 7KQL; source: HEK293, transiently transfected, supernatant (concentrated); also a large batch produced and purified by SinoBiological
[1]
  EC50: 0.15 nM
[2]
  Kd: 1.01 nM
  koff: 0.000219 s⁻¹
  kon: 216000 M⁻¹ s⁻¹

B2: MG1131, human IgG1 format (antibody, V domains shown)
VH: EVQLVQSGAEVKKPGASVKVSCKASGYTFTSYYMHWVRQAPGQGLEWMGIINPSGGSTSYAQKFQGRVTMTRDTSTSTVYMELSSLRSEDTAVYYCASRSGSGWFGALDYWGQGTLVTVSS
VL: not shown
notes: VH of MG1131; constant domains of unmodified human IgG1 heavy chain, from the plasmid pTrioz-hIgG1 (InvivoGen); VL of MG1131; constant domain of the light chain as encoded by pTrioz-hIgG1; IgG1; VH and VL by gene synthesis; also called 7VYT; source: HEK293, transiently transfected, supernatant (concentrated)
[3]
  EC50: 0.489 nM
[4]
  Kd: 0.189 nM
  koff: 7.43e-05 s⁻¹
  kon: 393000 M⁻¹ s⁻¹

B3: Tiragolumab, human IgG1 format (antibody, V domains shown)
VH: EVQLQQSGPGLVKPSQTLSLTCAISGDSVSSNSAAWNWIRQSPSRGLEWLGKTYYRFKWYSDYAVSVKGRITINPDTSKNQFSLQLNSVTPEDTAVFYCTRESTTYDLLAGPFDYWGQGTLVTVSS
VL: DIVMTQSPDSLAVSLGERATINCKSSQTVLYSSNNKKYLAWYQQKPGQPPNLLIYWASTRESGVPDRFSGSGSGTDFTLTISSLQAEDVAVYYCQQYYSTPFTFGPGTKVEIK
notes: VH of Tiragolumab; constant domains of unmodified human IgG1 heavy chain, from the plasmid pTrioz-hIgG1 (InvivoGen); VL of Tiragolumab; constant domain of the light chain as encoded by pTrioz-hIgG1; IgG1; VH and VL by gene synthesis; also called 8JEO; source: HEK293, transiently transfected, supernatant (concentrated)
[3]
  EC50: 3.15 nM
[4]
  Kd: 0.681 nM
  koff: 0.000279 s⁻¹
  kon: 410000 M⁻¹ s⁻¹

B4: CC-95251, human IgG1 format (antibody, V domains shown)
VH: QVQLVQSGAEVKKPGASVKVSCKASGYTFRGYGISWVRQAPGQGLEWMGWISAYGGETNYAQKLQGRVTMTTDTSTSTAYMELRSLRSDDTAVYYCAREAGSSWYDFDLWGRGTLVTVSS
VL: DIQMTQSPSSVSASVGDRVTITCRASQGISSWLAWYQQKPGKAPKLLIYAASNLQSGVPSRFSGSGSGTDFTLTISSLQPEDFATYYCQQGASFPITFGGGTKVEIK
notes: constant domains of unmodified human IgG1 heavy chain, from the plasmid pTrioz-hIgG1 (InvivoGen); constant domain of the light chain as encoded by pTrioz-hIgG1; VH and VL by gene synthesis; also called 7ST5; source: HEK293, transiently transfected, supernatant
[5]
  binding result: binds

B5: M6903, human IgG1 format (antibody, V domains shown)
VH: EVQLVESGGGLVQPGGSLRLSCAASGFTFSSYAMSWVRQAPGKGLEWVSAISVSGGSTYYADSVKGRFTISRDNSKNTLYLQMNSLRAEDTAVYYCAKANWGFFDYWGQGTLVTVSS
VL: QSALTQPRSVSGSPGQSVTISCTGTSSDVGGYNYVSWYQQHPGKAPKLMIYDVSKRPSGVPDRFSGSKSGNTASLTISGLQAEDEADYYCSSYADSVVFGGGTKVTVL
notes: VH of M6903; constant domains of unmodified human IgG1 heavy chain, from the plasmid pTrioz-hIgG1 (InvivoGen); VL of M6903; constant domain of the light chain as encoded by pTrioz-hIgG1; IgG1; VH and VL by gene synthesis; also called 6TXZ; source: HEK293, transiently transfected, supernatant (concentrated); also a large batch produced and purified by SinoBiological
[1]
  EC50: 0.193 nM
[2]
  Kd: 0.2 nM
  koff: 3.06e-05 s⁻¹
  kon: 153000 M⁻¹ s⁻¹

Source: publication PMC11933058 (Frontiers in Immunology, 2025)
